# In publication PMC3910112:
# pKd: −log10 of the molar value.
# Biological target: fluorescein-labelled mouse EAG1 eag domain (FL-eag) (mouse) (UniProt Q60603)
# Assay: fluorescence polarisation
substance,measurement,value
mouse EAG1 (mEAG1) CNBHD (residues 552-724) (from UniProt Q60603 552-724) (domain or fragment),pKd,4.88
